# Results: the Human Domainome abundance scans (Beltran et al. 2025)
# ± gives the uncertainty stated by the source.
# B1: Integrator complex subunit 12, residues 155 to 213; numbered along this chain, Q96CB8 (parent)
# chain: AMEMGLACVVCRQMMVASGNQLVECQECHNLYHRDCHKPQVTDKEANDPRLVWYCARCT
# Variants of: B1
# Test: abundance fitness (aPCA) (normalised: wild type 0, dead -1); higher = more abundant; growth selection in yeast, the domain comes from the species named
# Conditions: Homo sapiens
row,Variant,abundance fitness
1,AMIMGLACVVCRQMMVASGNQLVECQECHNLYHRDCHKPQVTDKEANDPRLVWYCARCT [E3I],-0.238 ± 0.041
2,AMHMGLACVVCRQMMVASGNQLVECQECHNLYHRDCHKPQVTDKEANDPRLVWYCARCT [E3H],-0.163 ± 0.039
3,AMEMGLACVVCRQMMVASGNQLVECQECHNLYHRDCHKPQVTKKEANDPRLVWYCARCT [D43K],-0.163 ± 0.048
4,AMEMGLACVVCRQMMVASGNQLVECQECHNLYHRDKHKPQVTDKEANDPRLVWYCARCT [C36K],-0.79 ± 0.078
5,AMEMGLACVVCRQMMVASGNQLVECQECHNLYHRDTHKPQVTDKEANDPRLVWYCARCT [C36T],-0.588 ± 0.046
6,AMEMGLACVVCRQMMVASGNQLVECQECHNLYHRDCQKPQVTDKEANDPRLVWYCARCT [H37Q],-0.176 ± 0.085
7,AMEMGLACVVCRQMMVASGNQLVECQECHNLYHRDCVKPQVTDKEANDPRLVWYCARCT [H37V],-0.075 ± 0.032
8,AMEMGLACVVCRQMMVASGNQLVECQECHNLVHRDCHKPQVTDKEANDPRLVWYCARCT [Y32V],-0.159 ± 0.032
9,AMEMGLACVVCRQMMVASGNQLVECQECHNLYHTDCHKPQVTDKEANDPRLVWYCARCT [R34T],0.005 ± 0.064
10,AMEMGLACVVCRQMMVASGNQLVECQECHNLYHRDCHKPQTTDKEANDPRLVWYCARCT [V41T],-0.165 ± 0.057
11,AMEMGHACVVCRQMMVASGNQLVECQECHNLYHRDCHKPQVTDKEANDPRLVWYCARCT [L6H],0.038 ± 0.039
12,AMEMGLICVVCRQMMVASGNQLVECQECHNLYHRDCHKPQVTDKEANDPRLVWYCARCT [A7I],0.008 ± 0.039
13,AMETGLACVVCRQMMVASGNQLVECQECHNLYHRDCHKPQVTDKEANDPRLVWYCARCT [M4T],0.04 ± 0.041
14,AMEDGLACVVCRQMMVASGNQLVECQECHNLYHRDCHKPQVTDKEANDPRLVWYCARCT [M4D],-0.06 ± 0.04
15,AMEMGLACVVCRQMMVASGNQLVECSECHNLYHRDCHKPQVTDKEANDPRLVWYCARCT [Q26S],-0.045 ± 0.039
16,AMEMGLACVVCRQMMVASGNQLVECQECHNLYHRDCHKPQVTDKNANDPRLVWYCARCT [E45N],-0.074 ± 0.1
17,AMEMGLACYVCRQMMVASGNQLVECQECHNLYHRDCHKPQVTDKEANDPRLVWYCARCT [V9Y],-0.147 ± 0.035
18,AMEMGLACVVCRQMMVASGNQLVECQECHKLYHRDCHKPQVTDKEANDPRLVWYCARCT [N30K],0.048 ± 0.095
19,AMEMGLACVVCEQMMVASGNQLVECQECHNLYHRDCHKPQVTDKEANDPRLVWYCARCT [R12E],0.007 ± 0.067
20,AMEMGLACVVCTQMMVASGNQLVECQECHNLYHRDCHKPQVTDKEANDPRLVWYCARCT [R12T],-0.049 ± 0.041
21,AMEMGLACVVCRQMMVASGNQLVECQECHNLYHRDCHKPQVTDVEANDPRLVWYCARCT [K44V],-0.038 ± 0.045
22,AMEMGLACVVCRQMMVASGNQLVECQECHNLYHRDCHKPQVTDAEANDPRLVWYCARCT [K44A],0.008 ± 0.046
23,AMEMGLACVVCRQMMVASGNQLVECQECHNLYHRDCHKPQVTDQEANDPRLVWYCARCT [K44Q],-0.081 ± 0.072

row,Variant,abundance fitness
1,AMEMGLACVHCRQMMVASGNQLVECQECHNLYHRDCHKPQVTDKEANDPRLVWYCARCT [V10H],-0.161 ± 0.038
2,AMEMGLACVICRQMMVASGNQLVECQECHNLYHRDCHKPQVTDKEANDPRLVWYCARCT [V10I],-0.047 ± 0.032
3,AMEMGLACVVCRQMMVASGNQLVECQECHNLYHRDCHKPQVTDKEANYPRLVWYCARCT [D48Y],-0.178 ± 0.084
4,AMEMGLACVVCRQMMVASGNQLVECQECHNLYHRDCHKPQVTDKEANDPRPVWYCARCT [L51P],0.035 ± 0.06
5,AMEMGLACVVCRQMMVASGNQLVECQECHNLYHRDCHKPQVTDKEANDPREVWYCARCT [L51E],0.056 ± 0.06
6,AMEMGLACVVCRQMMVASGNQLVECQECHNLYHRDCHKPQVTDKEANDPRRVWYCARCT [L51R],0.062 ± 0.04
7,AMEMGLACVVCRQMMVANGNQLVECQECHNLYHRDCHKPQVTDKEANDPRLVWYCARCT [S18N],0.015 ± 0.035
8,AMEMGLACVVCRQMMVASENQLVECQECHNLYHRDCHKPQVTDKEANDPRLVWYCARCT [G19E],0.058 ± 0.065
9,AMEMGLACVVCRQMMVASTNQLVECQECHNLYHRDCHKPQVTDKEANDPRLVWYCARCT [G19T],-0.026 ± 0.068
10,AMEMGLACVVCRQMMVASQNQLVECQECHNLYHRDCHKPQVTDKEANDPRLVWYCARCT [G19Q],-0.175 ± 0.11
11,AMEMGLACVVCRQMMVASGNHLVECQECHNLYHRDCHKPQVTDKEANDPRLVWYCARCT [Q21H],0 ± 0.05
12,AMEMGLACVVCRQMMVASGNNLVECQECHNLYHRDCHKPQVTDKEANDPRLVWYCARCT [Q21N],-0.056 ± 0.042
13,AMEMGLACVVCRQMMVASGNGLVECQECHNLYHRDCHKPQVTDKEANDPRLVWYCARCT [Q21G],-0.018 ± 0.035
14,AMEMGLACVVCRQMMVASGNQLVECQECHNLYHRDCHKPQVTDKEANDPRLVWYCARCP [T59P],-0.142 ± 0.083
15,AMEMGLACVVRRQMMVASGNQLVECQECHNLYHRDCHKPQVTDKEANDPRLVWYCARCT [C11R],-0.885 ± 0.061
16,AMEMGLACVVWRQMMVASGNQLVECQECHNLYHRDCHKPQVTDKEANDPRLVWYCARCT [C11W],-0.958 ± 0.12
17,AMEMGLACVVCRQMMDASGNQLVECQECHNLYHRDCHKPQVTDKEANDPRLVWYCARCT [V16D],0.017 ± 0.036
18,AMEMGLACVVCRQMMVASGNQLVECQECHNLYHRDCHKPCVTDKEANDPRLVWYCARCT [Q40C],0.148 ± 0.062
19,AMEMGLACVVCRQMMVASGNQLVQCQECHNLYHRDCHKPQVTDKEANDPRLVWYCARCT [E24Q],-0.088 ± 0.086
20,AMEMGLACVVCRQMMVASGNQLVMCQECHNLYHRDCHKPQVTDKEANDPRLVWYCARCT [E24M],-0.397 ± 0.085
21,AMEMGLACVVCRQMMVASGNQLVECQECHNLYHRDCHKPQVTDKEAPDPRLVWYCARCT [N47P],-0.2 ± 0.056
22,AMEMGLACVVCRQMMVASGNQLVECQECHNLYHRDCHKPQVTDKEANDPRLVFYCARCT [W53F],-0.045 ± 0.098
